Results: publication PMC12866851, “ACSL5 Regulates Glucose Metabolism and Chemotherapy Sensitivity in Colorectal Cancer Cells under Glutamine Deficiency” (Advanced Science, 2025)

Biological target: the molecule itself
Assay: cross-linking; HCT116 cells (shctrl or shACSL5) treated without or with DSS crosslinker; whole cell lysates, Western blot against IDH2; dimer and monomer of IDH2

B1: isocitrate dehydrogenase 2 (IDH2) (enzyme, human (endogenous in HCT116), UniProt P48735 40-452, looked up)
chain: ADKRIKVAKPVVEMDGDEMTRIIWQFIKEKLILPHVDIQLKYFDLGLPNRDQTDDQVTIDSALATQKYSVAVKCATITPDEARVEEFKLKKMWKSPNGTIRNILGGTVFREPIICKNIPRLVPGWTKPITIGRHAHGDQYKATDFVADRAGTFKMVFTPKDGSGVKEWEVYNFPAGGVGMGMYNTDESISGFAHSCFQYAIQKKWPLYMSTKNTILKAYDGRFKDIFQEIFDKHYKTDFDKNKIWYEHRLIDDMVAQVLKSSGGFVWACKNYDGDVQSDILAQGFGSLGLMTSVLVCPDGKTIEAEAAHGTVTRHYREHQKGRPTSTNPIASIFAWTRGLEHRGKLDGNQDLIRFAQMLEKVCVETVESGAMTKDLAGCIHGLSNVKLNEHFLNTTDFLDTIKSNLDRALGRQ
notes: IDH2, mitochondrial isocitrate dehydrogenase 2, endogenous in human HCT116 cells; source: endogenous, HCT116 lysate
stoichiometry N: 2
